{"source": "patent US20110280883A1", "about": "(SAMSUNG ELECTRONICS, published 2011)", "biological_target": "T1, EGFR on A431 cell line (overexpresses EGFR) (UniProt P00533 25-1210)", "T1 construct": "whole, on cells; also called A431 cells; cells overexpressing EGFR", "assay": "cell ELISA on A431 cells attached to the plate, antibody titrated", "procedure": "Binding capacity between the antibody obtained in 5 and the A431 cell line (ATCC) which overexpresses EGFR is determined by ELISA [Biological efficacy of a chimeric antibody to the epidermal growth factor receptor in a human tumor xenograft model, Clinic. Cancer res., 1995, vol. 1, 1311-1318] (the entire contents of which are incorporated herein by reference). The protocol for the ELISA assay is similar to that described in 6 above, except that antibody was used over a range of concentration and A431 cells were attached to the plate.", "data": [{"binder": "Erbb1 78 clone antibody (fully human full-length IgG) (antibody, V domains shown, also called Erbb1-78 antibody) VH: QMQLVQSGGGVVRPGGSLRLSCAASGFTFDDYGMSWVRQAPGKGLEWVSGINWNGGSTGYADSVKGRFTISRDNAKNSLYLQMNSLRAEDTAVYYCARDYWGSLDYWGQGTLITVSS VL: QSALTQPASVSGSPGQSITISCTGTSSDVGGYNYVSWYQQNSGKAPKLMIHDVNRRPSGVSNRFSGSKSGNTASLTIAGLQADDEADYYCSSYVSTNTYVFGTGTKVTVL", "values": [{"measurement": "Kd", "value": 1.09, "unit": "nM"}]}]}
